This note sets out measurements from US10087245 (Hoffmann-La Roche, dated 2018).

This experiment has as its target T1, Pick bodies (cellular inclusions of Pick's disease, only constituted of 3R tau proteins) (human, UniProt P10636-5 2-410, limits assumed).
T1 construct: Target in tissue sections (IHC)
The experiment can be described thus: IHC on human paraffin sections, Pick's disease. The method, then: Immunohistochemistry was performed on formalin-fixed tissues (paraffin-embedded or frozen sections or vibratome sections). Standard IHC protocols were applied and adapted for each tissue conditions. As most of immunostaining experiments were performed using paraffin sections, a detailed protocol for paraffin-embedded material is described herein. Immunostaining of brain tissue was performed on 4 µm thick paraffin sections. Both human and mouse tissues were used (Human patients with AD or other tauopathies and Tg4510 mice (Santacruz et al. 2005 Science, 309, 476-481). Sections were de-paraffinized in xylene, rehydrated through ethanol (100%, 90%, and 70%), 5 min for each solution and finally brought to running tap water for 10 min. They were then incubated in 98% formic acid for 5 min, washed again under running tap water, quenched for endogenous peroxidase with 3% hydrogen peroxide and 20% methanol, and finally washed in water. Non-specific binding was blocked by incubating the sections for 30 min in 2% bovine serum albumin in TBS+0.5% Tween. Appropriate dilutions of primary antibodies (1-10 µg/ml of VHH with either His or Strep tag) were then applied and slices incubated overnight in a humidified chamber at 4° C. […]

T1 sequence (P10636 other isoform, or with tags, fused parts or gaps limits assumed): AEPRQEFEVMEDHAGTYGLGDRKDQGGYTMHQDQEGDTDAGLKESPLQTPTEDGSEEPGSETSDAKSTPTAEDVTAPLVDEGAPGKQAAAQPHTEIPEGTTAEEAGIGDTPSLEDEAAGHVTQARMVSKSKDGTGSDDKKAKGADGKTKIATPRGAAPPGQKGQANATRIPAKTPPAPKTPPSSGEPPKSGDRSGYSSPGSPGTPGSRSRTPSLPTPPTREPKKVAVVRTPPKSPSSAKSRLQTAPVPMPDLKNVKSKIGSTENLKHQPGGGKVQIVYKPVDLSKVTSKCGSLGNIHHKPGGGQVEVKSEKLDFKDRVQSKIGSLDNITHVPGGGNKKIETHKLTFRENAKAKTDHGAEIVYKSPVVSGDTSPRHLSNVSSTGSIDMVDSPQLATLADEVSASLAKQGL

B1: VHH Tau-A2 (VHH)
VHH: EVQLQASGGGLVQAGGSLRLSCAASGRSFSGSTMEWYRQAPGKERKFVAAIRTISSRTYYVDSVKGRFTISRDSTKNTVYLQLNSLKVEDTAVYYCAARFSGTIGTTSSVDYWGQGTQVTVSS
notes: Alpaca VHH, expressed in E. coli with a His-tag or a Strep-tag; monomeric by DLS; not shown: 6-Histidine tag (pET23d) or C-terminal Strep-tag (pASK IBA2)
Take B1: the binding result is given as “no binding”.
